Results: paper PMC7582325, “How Human H1 Histone Recognizes DNA” (Molecules, 2020)

B1: ODN2 x ODNcom2 (dsDNA)
DNA 1: AGTGCCTGACCGTCGTCGAC
DNA 2: GTCGACGACGGTCAGGCACT
B2: d(pA)16 x d(pT)16 (dsDNA)
DNA 1: AAAAAAAAAAAAAAAA
DNA 2: TTTTTTTTTTTTTTTT
modifications: 5' phosphate
B3: d(pA)20 x d(pT)20 (dsDNA)
DNA 1: AAAAAAAAAAAAAAAAAAAA
DNA 2: TTTTTTTTTTTTTTTTTTTT
modifications: 5' phosphate
B4: ODN1 x ODNcom1 (dsDNA)
DNA 1: CAGACGATCAGCGACGCGTC
DNA 2: GACGCGTCGCTGATCGTCTG
B5: d(pA)12 x d(pT)12 (dsDNA)
DNA 1: AAAAAAAAAAAA
DNA 2: TTTTTTTTTTTT
modifications: 5' phosphate
B6: d(pA)6 + d(pT)6 mixture (mixed)
?: AAAAAA
DNA: TTTTTT
modifications: 5' phosphate
B7: d(pA)3 + d(pT)3 mixture (mixed)
?: AAA
DNA: TTT
modifications: 5' phosphate

Each molecule was assayed against T1, H1° histone (human recombinant; H1 histone) (Homo sapiens, UniProt P07305) (assay: competition with […]'-[…]TAGAAGATCAAA, nitrocellulose filter binding). Settings: 20 mM Tris-HCl pH 7.5, 5 mM MgCl2, 1 mM EDTA, 20 °C, 0.3 mg/mL H1; Kd taken as I50 with 12 µM labelled 12-mer (its Kd); error not above 10–12%.
T1 construct: gene H1-0; commercial recombinant human H1° (BioLabs M2501S), free histone
T1 sequence (P07305 2-194): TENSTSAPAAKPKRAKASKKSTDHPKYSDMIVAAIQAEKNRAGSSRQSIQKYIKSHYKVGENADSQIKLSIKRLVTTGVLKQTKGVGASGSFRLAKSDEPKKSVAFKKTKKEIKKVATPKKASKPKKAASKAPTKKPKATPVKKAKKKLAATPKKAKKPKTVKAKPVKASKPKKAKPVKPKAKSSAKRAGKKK
`Nc1ncnc2c1ncn2[C@H]1C[C@H](O)[C@@H](COP(=O)(O)O)O1` [dAMP] gave a Kd of 16000 µM.
`Cc1cn([C@H]2C[C@H](O)[C@@H](COP(=O)(O)O)O2)c(=O)[nH]c1=O` [dTMP] showed a Kd of 13000 µM.
`Nc1ccn([C@H]2C[C@H](O)[C@@H](COP(=O)(O)O)O2)c(=O)n1` [dCMP] showed a Kd of 10000 µM.

The molecules below were run against T2, histone H1° (H1.0) (Homo sapiens, UniProt P07305 1-194) (assay: competition filter binding (I50); 5 mM Mg2+; 20 mM Tris-HCl pH 7.5, 5 mM MgCl2, 1 mM EDTA, 0.3 mg/mL H1, 1 h at 20 C; nitrocellulose filters; competition against 12.0 uM 32P 12-mer; mononucleotides dAMP/dCMP/dTMP not listed). Settings: protein: commercial.
T2 sequence (P07305 whole entry): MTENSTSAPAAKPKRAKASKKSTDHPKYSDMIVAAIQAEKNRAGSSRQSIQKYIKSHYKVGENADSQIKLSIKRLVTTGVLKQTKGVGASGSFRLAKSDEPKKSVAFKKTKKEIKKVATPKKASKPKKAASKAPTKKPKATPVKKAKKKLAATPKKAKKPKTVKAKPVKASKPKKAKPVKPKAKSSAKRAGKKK
In the case of AAAAA (ssDNA, 5' phosphate) [d(pA)5], the Kd is reported as 70 µM.
Molecule TTTTT (ssDNA, 5' phosphate) [d(pT)5] has a Kd of 75 µM.
AGTGCCTGACCGTCGTCGAC (ssDNA) [ODN2] showed a Kd of 3.8 µM.
Molecule TTTTTTTTTTTTTTTT (ssDNA, 5' phosphate) [d(pT)16] has a Kd of 5 µM.
With AAAAAA (ssDNA, 5' phosphate) [d(pA)6] the Kd was 57 µM.
Work on TTTT (ssDNA, 5' phosphate) [d(pT)4] yielded a Kd of 96 µM.
Work on AAAAAAAAAAAA (ssDNA, 5' phosphate) [d(pA)12] yielded a Kd of 14 µM.
With AAAAAAAAAA (ssDNA, 5' phosphate) [d(pA)10] the Kd was 28 µM.
Work on TTTTTT (ssDNA, 5' phosphate) [d(pT)6] yielded a Kd of 48 µM.
In the case of TATAATCTTA (ssDNA) [10-mer d(TATAATCTTA)], the Kd is reported as 28 µM.
TCCCATCAAA (ssDNA) [10-mer d(TCCCATCAAA)] showed a Kd of 30 µM.
For TTTTTTTTTTTT (ssDNA, 5' phosphate) [d(pT)12], the Kd was 10 µM.
GACGCGTCGCTGATCGTCTG (ssDNA) [ODNcom1] was tested, and the Kd was 3.7 µM.
With CCCCCC (ssDNA, 5' phosphate) [d(pC)6] the Kd was 61 µM.
With CCCCCCCCCC (ssDNA, 5' phosphate) [d(pC)10] the Kd was 25 µM.
Work on AAAAAAAAAAAAAAAA (ssDNA, 5' phosphate) [d(pA)16] yielded a Kd of 10 µM.
AAAA (ssDNA, 5' phosphate) [d(pA)4] showed a Kd of 240 µM.
ATG (ssDNA, 5' phosphate) [d(pATG)] showed a Kd of 1500 µM.
Work on AAAAAAAAAAAAAAAAAAAA (ssDNA, 5' phosphate) [d(pA)20] yielded a Kd of 10 µM.
Molecule AAAAAAAA (ssDNA, 5' phosphate) [d(pA)8] has a Kd of 48 µM.
With TTTTTTTTTT (ssDNA, 5' phosphate) [d(pT)10] the Kd was 25 µM.
Molecule TAAAATCAAA (ssDNA) [10-mer d(TAAAATCAAA)] has a Kd of 30 µM.
With CCCCCCCCCCCC (ssDNA, 5' phosphate) [d(pC)12] the Kd was 20 µM.
GTCGACGACGGTCAGGCACT (ssDNA) [ODNcom2] was tested, and the Kd was 4.1 µM.
For TTTTTTTTTTTTTTTTTTTT (ssDNA, 5' phosphate) [d(pT)20], the Kd was 4.6 µM.
In the case of CCCCC (ssDNA, 5' phosphate) [d(pC)5], the Kd is reported as 300 µM.
CAGACGATCAGCGACGCGTC (ssDNA) [ODN1] was tested, and the Kd was 4 µM.
CCCCCCCC (ssDNA, 5' phosphate) [d(pC)8] was tested, and the Kd was 34 µM.
Work on TTTTTTTT (ssDNA, 5' phosphate) [d(pT)8] yielded a Kd of 76 µM.
With TAGAAGATCAAA (ssDNA) [12-mer hetero-ON, unlabeled competitor] the Kd was 12 µM.

Same assay, conditions: protein: commercial; blunt
B1 gave a Kd of 2.9 µM.
With B2 the Kd was 3.8 µM.
Work on B3 yielded a Kd of 3 µM.
B4 was tested, and the Kd was 2.7 µM.
Molecule B5 has a Kd of 7.5 µM.

Same assay, conditions: protein: commercial; mixture of complementary strands, not a preformed duplex
B6 was tested, and the Kd was 55 µM.
B7 showed a Kd of 1000 µM.

The molecules below were run against T2, histone H1° (H1.0) (assay: competition filter binding (I50)). Settings: 5' phosphate; 20 mM Tris-HCl pH 7.5, 5 mM MgCl2, 1 mM EDTA, 0.3 mg/mL H1, 1 h at 20 C; nitrocellulose filters; competition against 12.0 uM 32P 12-mer; mononucleotides ….
Work on d(pC)2 yielded a Kd of 4400 µM.

What follows are molecules tested against T2, histone H1° (H1.0) (assay: filter binding; 5 mM Mg2+; 20 mM Tris-HCl pH 7.5, 5 mM MgCl2, 1 mM EDTA, 0.3 mg/mL H1, 1 h at 20 C; nitrocellulose filters; competition against 12.0 uM 32P 12-mer; mononucleotides dAMP/dCMP/dTMP not listed). Settings: protein: commercial; label: 5'-32P.
TAGAAGATCAAA (ssDNA, 5' phosphate (32P)) [12-mer hetero-ON 32P probe] showed a Kd of 12 µM.
